{
  "source": "paper PMC9482650",
  "about": "“Quantitative fragmentomics allow affinity mapping of interactomes” (Nature Communications, 2022)",
  "data": [
    {"target": "T1, GRIP1_7, Q9Y3R0", "T1 sequence (Q9Y3R0 999-1096, limits assumed, looked up)": "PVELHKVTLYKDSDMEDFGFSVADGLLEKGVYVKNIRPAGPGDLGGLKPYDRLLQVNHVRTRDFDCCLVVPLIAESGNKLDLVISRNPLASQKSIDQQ", "assay": "holdup assay", "design": "key: below the threshold = too weak to quantify, mostly under pKd 3.1 to 4", "conditions": "plain residues with an end cap or a label only (N-terminal biotin on a linker: ttds)", "values": [
      {"binder": "QPGTPTRTAV", "note": "[MAP2K2, P36507]", "pKd": "below the threshold"}
    ]},
    {"target": "T2, DLG3_3, Q92796", "T2 sequence (Q92796 374-475, limits assumed, looked up)": "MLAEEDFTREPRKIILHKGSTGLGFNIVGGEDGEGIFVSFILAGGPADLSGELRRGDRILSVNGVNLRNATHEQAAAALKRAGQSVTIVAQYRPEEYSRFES", "assay": "holdup assay", "design": "key: below the threshold = too weak to quantify, mostly under pKd 3.1 to 4", "conditions": "plain residues with an end cap or a label only (N-terminal biotin on a linker: ttds)", "values": [
      {"binder": "QPGTPTRTAV", "note": "[MAP2K2, P36507]", "pKd": "below the threshold"}
    ]},
    {"target": "DLG1_1, Q12959", "assay": "holdup assay", "design": "key: below the threshold = too weak to quantify, mostly under pKd 3.1 to 4", "conditions": "plain residues with an end cap or a label only (N-terminal biotin on a linker: ttds)", "values": [
      {"binder": "QPGTPTRTAV", "note": "[MAP2K2, P36507]", "pKd": 3.53}
    ]},
    {"target": "MAGI2_3, Q86UL8", "sequence (Q86UL8 600-682)": "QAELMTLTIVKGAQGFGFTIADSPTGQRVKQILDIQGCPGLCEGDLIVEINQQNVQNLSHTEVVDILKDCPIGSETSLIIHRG", "assay": "holdup assay", "design": "key: below the threshold = too weak to quantify, mostly under pKd 3.1 to 4", "conditions": "plain residues with an end cap or a label only (N-terminal biotin on a linker: ttds)", "values": [
      {"binder": "QPGTPTRTAV", "note": "[MAP2K2, P36507]", "pKd": 3.6}
    ]},
    {"target": "DLG1_2, Q12959", "assay": "holdup assay", "design": "key: below the threshold = too weak to quantify, mostly under pKd 3.1 to 4", "conditions": "plain residues with an end cap or a label only (N-terminal biotin on a linker: ttds)", "values": [
      {"binder": "QPGTPTRTAV", "note": "[MAP2K2, P36507]", "pKd": 3.99}
    ]},
    {"target": "T3, PCLO, Q9Y6V0", "T3 sequence (Q9Y6V0 4491-4600, limits assumed, looked up)": "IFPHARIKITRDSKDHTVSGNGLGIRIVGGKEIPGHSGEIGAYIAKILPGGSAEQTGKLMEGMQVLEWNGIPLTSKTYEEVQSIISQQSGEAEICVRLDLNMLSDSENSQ", "assay": "holdup assay", "design": "key: below the threshold = too weak to quantify, mostly under pKd 3.1 to 4", "conditions": "plain residues with an end cap or a label only (N-terminal biotin on a linker: ttds)", "values": [
      {"binder": "QPGTPTRTAV", "note": "[MAP2K2, P36507]", "pKd": "below the threshold"}
    ]},
    {"target": "T4, DFNB31_1, Q9P202", "T4 sequence (Q9P202 135-233, limits assumed, looked up)": "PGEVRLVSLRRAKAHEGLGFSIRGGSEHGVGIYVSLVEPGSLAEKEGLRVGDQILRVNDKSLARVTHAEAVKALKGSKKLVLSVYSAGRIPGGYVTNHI", "assay": "holdup assay", "design": "key: below the threshold = too weak to quantify, mostly under pKd 3.1 to 4", "conditions": "plain residues with an end cap or a label only (N-terminal biotin on a linker: ttds)", "values": [
      {"binder": "QPGTPTRTAV", "note": "[MAP2K2, P36507]", "pKd": "below the threshold"}
    ]},
    {"target": "MAGI2_5, Q86UL8", "sequence (Q86UL8 915-1017)": "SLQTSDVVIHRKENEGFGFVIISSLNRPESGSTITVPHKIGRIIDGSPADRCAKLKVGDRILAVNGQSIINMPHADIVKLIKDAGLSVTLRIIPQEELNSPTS", "assay": "holdup assay", "design": "key: below the threshold = too weak to quantify, mostly under pKd 3.1 to 4", "conditions": "plain residues with an end cap or a label only (N-terminal biotin on a linker: ttds)", "values": [
      {"binder": "QPGTPTRTAV", "note": "[MAP2K2, P36507]", "pKd": 3.59}
    ]},
    {"target": "TJP2_1, Q9UDY2", "sequence (Q9UDY2 24-128)": "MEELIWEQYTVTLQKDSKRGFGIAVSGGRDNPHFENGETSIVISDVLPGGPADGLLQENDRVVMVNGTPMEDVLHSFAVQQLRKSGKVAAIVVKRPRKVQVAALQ", "assay": "holdup assay", "design": "key: below the threshold = too weak to quantify, mostly under pKd 3.1 to 4", "conditions": "plain residues with an end cap or a label only (N-terminal biotin on a linker: ttds)", "values": [
      {"binder": "QPGTPTRTAV", "note": "[MAP2K2, P36507]", "pKd": 3.71}
    ]},
    {"target": "FRMPD3, Q5JV73", "sequence (Q5JV73 12-100)": "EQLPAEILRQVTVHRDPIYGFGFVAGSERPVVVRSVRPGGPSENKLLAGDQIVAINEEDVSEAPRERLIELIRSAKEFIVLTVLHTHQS", "assay": "holdup assay", "design": "key: below the threshold = too weak to quantify, mostly under pKd 3.1 to 4", "conditions": "plain residues with an end cap or a label only (N-terminal biotin on a linker: ttds)", "values": [
      {"binder": "QPGTPTRTAV", "note": "[MAP2K2, P36507]", "pKd": "below the threshold"}
    ]},
    {"target": "MAGI1_2, Q96QZ7", "sequence (Q96QZ7 456-580)": "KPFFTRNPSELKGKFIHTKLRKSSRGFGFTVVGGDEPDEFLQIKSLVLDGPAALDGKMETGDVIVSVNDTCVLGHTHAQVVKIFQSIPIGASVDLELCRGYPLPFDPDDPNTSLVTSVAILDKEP", "assay": "holdup assay", "design": "key: below the threshold = too weak to quantify, mostly under pKd 3.1 to 4", "conditions": "plain residues with an end cap or a label only (N-terminal biotin on a linker: ttds)", "values": [
      {"binder": "QPGTPTRTAV", "note": "[MAP2K2, P36507]", "pKd": "below the threshold"}
    ]},
    {"target": "DLG4_3, P78352", "sequence (P78352 306-403)": "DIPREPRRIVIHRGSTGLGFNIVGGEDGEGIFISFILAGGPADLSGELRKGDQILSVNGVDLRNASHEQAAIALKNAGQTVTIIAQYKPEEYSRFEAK", "assay": "holdup assay", "design": "key: below the threshold = too weak to quantify, mostly under pKd 3.1 to 4", "conditions": "plain residues with an end cap or a label only (N-terminal biotin on a linker: ttds)", "values": [
      {"binder": "QPGTPTRTAV", "note": "[MAP2K2, P36507]", "pKd": "below the threshold"}
    ]},
    {"target": "T5, DVL3, Q92997", "T5 sequence (Q92997 244-331, limits assumed, looked up)": "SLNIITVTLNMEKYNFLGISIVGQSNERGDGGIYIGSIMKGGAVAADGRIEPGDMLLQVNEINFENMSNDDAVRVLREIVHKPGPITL", "assay": "holdup assay", "design": "key: below the threshold = too weak to quantify, mostly under pKd 3.1 to 4", "conditions": "plain residues with an end cap or a label only (N-terminal biotin on a linker: ttds)", "values": [
      {"binder": "QPGTPTRTAV", "note": "[MAP2K2, P36507]", "pKd": "below the threshold"}
    ]},
    {"target": "SCRIB_3, Q14160", "sequence (Q14160 999-1103)": "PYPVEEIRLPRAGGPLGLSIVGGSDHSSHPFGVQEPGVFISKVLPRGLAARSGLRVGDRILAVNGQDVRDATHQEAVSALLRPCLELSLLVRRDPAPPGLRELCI", "assay": "holdup assay", "design": "key: below the threshold = too weak to quantify, mostly under pKd 3.1 to 4", "conditions": "plain residues with an end cap or a label only (N-terminal biotin on a linker: ttds)", "values": [
      {"binder": "QPGTPTRTAV", "note": "[MAP2K2, P36507]", "pKd": "below the threshold"}
    ]},
    {"target": "PTPN3, P26045", "sequence (P26045 505-587)": "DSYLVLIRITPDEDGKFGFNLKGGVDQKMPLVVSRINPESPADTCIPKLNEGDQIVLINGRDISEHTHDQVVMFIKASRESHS", "assay": "holdup assay", "design": "key: below the threshold = too weak to quantify, mostly under pKd 3.1 to 4", "conditions": "plain residues with an end cap or a label only (N-terminal biotin on a linker: ttds)", "values": [
      {"binder": "QPGTPTRTAV", "note": "[MAP2K2, P36507]", "pKd": "below the threshold"}
    ]},
    {"target": "Inadl_6, Q8NI35", "sequence (Q8NI35 1058-1167)": "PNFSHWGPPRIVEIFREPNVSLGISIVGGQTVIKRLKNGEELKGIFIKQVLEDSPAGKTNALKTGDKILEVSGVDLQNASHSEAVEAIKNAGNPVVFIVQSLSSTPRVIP", "assay": "holdup assay", "design": "key: below the threshold = too weak to quantify, mostly under pKd 3.1 to 4", "conditions": "plain residues with an end cap or a label only (N-terminal biotin on a linker: ttds)", "values": [
      {"binder": "QPGTPTRTAV", "note": "[MAP2K2, P36507]", "pKd": "below the threshold"}
    ]},
    {"target": "NHERF2_2, Q15599", "sequence (Q15599 142-238)": "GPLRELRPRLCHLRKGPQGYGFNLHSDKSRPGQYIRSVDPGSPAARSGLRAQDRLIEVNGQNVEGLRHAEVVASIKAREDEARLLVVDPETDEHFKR", "assay": "holdup assay", "design": "key: below the threshold = too weak to quantify, mostly under pKd 3.1 to 4", "conditions": "plain residues with an end cap or a label only (N-terminal biotin on a linker: ttds)", "values": [
      {"binder": "QPGTPTRTAV", "note": "[MAP2K2, P36507]", "pKd": "below the threshold"}
    ]},
    {"target": "T6, TIAM2, Q8IVF5", "T6 sequence (Q8IVF5 885-986, limits assumed, looked up)": "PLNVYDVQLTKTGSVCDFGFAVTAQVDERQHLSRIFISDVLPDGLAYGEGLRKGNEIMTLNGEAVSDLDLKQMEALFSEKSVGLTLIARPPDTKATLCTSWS", "assay": "holdup assay", "design": "key: below the threshold = too weak to quantify, mostly under pKd 3.1 to 4", "conditions": "plain residues with an end cap or a label only (N-terminal biotin on a linker: ttds)", "values": [
      {"binder": "QPGTPTRTAV", "note": "[MAP2K2, P36507]", "pKd": "below the threshold"}
    ]},
    {"target": "MAST1, Q9Y2H9", "sequence (Q9Y2H9 962-1065)": "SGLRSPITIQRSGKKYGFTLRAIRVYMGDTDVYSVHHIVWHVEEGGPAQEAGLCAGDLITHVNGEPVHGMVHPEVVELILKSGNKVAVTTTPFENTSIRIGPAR", "assay": "holdup assay", "design": "key: below the threshold = too weak to quantify, mostly under pKd 3.1 to 4", "conditions": "plain residues with an end cap or a label only (N-terminal biotin on a linker: ttds)", "values": [
      {"binder": "QPGTPTRTAV", "note": "[MAP2K2, P36507]", "pKd": "below the threshold"}
    ]},
    {"target": "Inadl_10, Q8NI35", "sequence (Q8NI35 1673-1763)": "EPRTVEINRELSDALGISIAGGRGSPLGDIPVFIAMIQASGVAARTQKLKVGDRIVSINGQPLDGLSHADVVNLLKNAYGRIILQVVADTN", "assay": "holdup assay", "design": "key: below the threshold = too weak to quantify, mostly under pKd 3.1 to 4", "conditions": "plain residues with an end cap or a label only (N-terminal biotin on a linker: ttds)", "values": [
      {"binder": "QPGTPTRTAV", "note": "[MAP2K2, P36507]", "pKd": "below the threshold"}
    ]},
    {"target": "T7, GRIP1_3, Q9Y3R0", "T7 sequence (Q9Y3R0 247-346, limits assumed, looked up)": "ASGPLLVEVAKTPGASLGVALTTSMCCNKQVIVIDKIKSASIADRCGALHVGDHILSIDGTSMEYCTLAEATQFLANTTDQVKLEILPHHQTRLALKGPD", "assay": "holdup assay", "design": "key: below the threshold = too weak to quantify, mostly under pKd 3.1 to 4", "conditions": "plain residues with an end cap or a label only (N-terminal biotin on a linker: ttds)", "values": [
      {"binder": "QPGTPTRTAV", "note": "[MAP2K2, P36507]", "pKd": "below the threshold"}
    ]},
    {"target": "T8, DFNB31_3, Q9P202", "T8 sequence (Q9P202 811-907, limits assumed, looked up)": "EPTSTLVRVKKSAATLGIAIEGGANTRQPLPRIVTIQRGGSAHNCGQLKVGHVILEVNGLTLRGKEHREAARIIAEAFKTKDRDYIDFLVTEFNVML", "assay": "holdup assay", "design": "key: below the threshold = too weak to quantify, mostly under pKd 3.1 to 4", "conditions": "plain residues with an end cap or a label only (N-terminal biotin on a linker: ttds)", "values": [
      {"binder": "QPGTPTRTAV", "note": "[MAP2K2, P36507]", "pKd": "below the threshold"}
    ]},
    {"target": "T9, CARD11, Q9BXL7", "T9 sequence (Q9BXL7 662-765, limits assumed, looked up)": "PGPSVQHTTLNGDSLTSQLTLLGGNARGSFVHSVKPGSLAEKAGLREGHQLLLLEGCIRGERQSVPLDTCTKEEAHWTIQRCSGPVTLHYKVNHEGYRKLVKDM", "assay": "holdup assay", "design": "key: below the threshold = too weak to quantify, mostly under pKd 3.1 to 4", "conditions": "plain residues with an end cap or a label only (N-terminal biotin on a linker: ttds)", "values": [
      {"binder": "QPGTPTRTAV", "note": "[MAP2K2, P36507]", "pKd": "below the threshold"}
    ]},
    {"target": "T10, RHPN1, Q8TCX5", "T10 sequence (Q8TCX5 508-602, limits assumed, looked up)": "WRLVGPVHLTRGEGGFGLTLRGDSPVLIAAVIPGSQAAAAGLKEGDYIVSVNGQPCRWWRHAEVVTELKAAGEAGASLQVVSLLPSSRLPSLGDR", "assay": "holdup assay", "design": "key: below the threshold = too weak to quantify, mostly under pKd 3.1 to 4", "conditions": "plain residues with an end cap or a label only (N-terminal biotin on a linker: ttds)", "values": [
      {"binder": "QPGTPTRTAV", "note": "[MAP2K2, P36507]", "pKd": "below the threshold"}
    ]},
    {"target": "GRID2IP_2, A4D2P6", "sequence (A4D2P6 272-370)": "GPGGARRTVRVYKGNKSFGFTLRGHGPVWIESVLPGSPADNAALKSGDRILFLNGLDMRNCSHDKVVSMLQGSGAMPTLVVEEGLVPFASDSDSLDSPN", "assay": "holdup assay", "design": "key: below the threshold = too weak to quantify, mostly under pKd 3.1 to 4", "conditions": "plain residues with an end cap or a label only (N-terminal biotin on a linker: ttds)", "values": [
      {"binder": "QPGTPTRTAV", "note": "[MAP2K2, P36507]", "pKd": 4.27}
    ]},
    {"target": "CASK, O14936", "sequence (O14936 487-570)": "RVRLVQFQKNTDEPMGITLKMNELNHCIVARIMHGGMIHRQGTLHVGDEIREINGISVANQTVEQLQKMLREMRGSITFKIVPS", "assay": "holdup assay", "design": "key: below the threshold = too weak to quantify, mostly under pKd 3.1 to 4", "conditions": "plain residues with an end cap or a label only (N-terminal biotin on a linker: ttds)", "values": [
      {"binder": "QPGTPTRTAV", "note": "[MAP2K2, P36507]", "pKd": "below the threshold"}
    ]},
    {"target": "T11, LNX2_3, Q8N448", "T11 sequence (Q8N448 463-564, limits assumed, looked up)": "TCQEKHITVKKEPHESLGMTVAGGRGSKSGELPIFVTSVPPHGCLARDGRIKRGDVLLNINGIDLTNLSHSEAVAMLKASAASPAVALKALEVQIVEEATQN", "assay": "holdup assay", "design": "key: below the threshold = too weak to quantify, mostly under pKd 3.1 to 4", "conditions": "plain residues with an end cap or a label only (N-terminal biotin on a linker: ttds)", "values": [
      {"binder": "QPGTPTRTAV", "note": "[MAP2K2, P36507]", "pKd": "below the threshold"}
    ]}
  ]
}
